From patent US20080152587A1 (Amgen, published 2008) come the findings set out here.

The term Kd denotes the free concentration of one partner at which half of the binding sites on the other are occupied at equilibrium, for simple one-to-one binding. By koff is commonly meant a measure of how fast the partners let go of each other. What is called kon is the second-order rate constant of association.

Positions count from the first letter of the chain named.

B1: anti-uPAR monoclonal antibody 1.4.2 (antibody, V domains shown)
VH: EVQLVESGGGLVQPGGSLRLSCAASGFTFSSYDMHWVRQATGKGLEWVSAIGTAGDTYYPGSVKGRFTISRENAKNSLYLQMNSLRAGDTAVYYCAREGDYSNYFTMVRGVTYGMDVWGQGTTVTVSS
VL: DIQLTQSPSSLCASVGDRITITCRASQGISKYLAWFQQKPGKAPKSLIYGASSLQSGVPAKFSGSGSGTDFTLTISSLQPEDFATYYCQQYNSYPLTFGGGTKVEIK
B2: anti-uPAR monoclonal antibody 1.61.1 (antibody, V domains shown)
VH: B1 VH with M107R
VL: B1 VL with L4M, C12S, I19V, A60S
B3: anti-uPAR monoclonal antibody 3.8.3 (antibody, V domains shown)
VH: EVQLVESGGGLVQPGGSLRLSCAASGFTFSSYWMSWVRQAPGKGLEWVANIKQHGSEKYYVDSVKGRFTISRDNAKNSLYLQMNSLRAEDTAVYYCAREEAYYYDNSGYYWYFDLWARGTLVTVSS
VL: DIQMTQSPSSVSASIGDRVTITCRASQGISSWLAWYQQKPGKTPKLLIYAASSLQSGVPSRFSGSGSGTDFTLTISSLQPEDFATYYCQQADSFPWTFGQGTKVEIK
B4: anti-uPAR monoclonal antibody 1.113.2 (antibody, V domains shown)
VH: QVQLVESGGGVVQPGRSLRLSCAASGFTFSSYGMHWVRQAPGKGLEWVAVIWYDGSNKYYADSVKGRFTISRDNSKNTLYLQMNSLRAEDTAVYYCARDLAALYYYYGMHVWGQGTTVTVSS
VL: EIVMTQSPATLSVSPGERATLSCRASQSFSSNLAWYQQKPGQAPRLLIYGASTRATGIPARFSGSGSGTEFTLTISSLQSEDFAVYYCQQNNNWPRTFGQGTKVEIK
B5: anti-uPAR monoclonal antibody 1.41.1 (antibody, V domains shown)
VH: QVQLVESGGGVVQPGRSLRLSCAAPGFTFSSYGMHWVRQAPGKGLEWVAVIWYDGSQKYYADSVKGRFTISRDNSKNTLYLQMNSLRAEDTAVYYCARGMTYYYYYGMDVWGQGTTVTVSS
VL: B4 VL with T10I, F29V, N32K, A34D, N91Y
B6: anti-uPAR monoclonal antibody 1.100.1 (antibody, V domains shown)
VH: EVQLVESGGGLLQPGGSLRLSCAASGFTVRNNYMNWVRQAPGKGLEWVSVIYTGGSTYYADSVKGRFTISRDNSKNTLYLQMNSLRAEDTAVYYCAREGKLAGMDVWGQGTTVTVSS
VL: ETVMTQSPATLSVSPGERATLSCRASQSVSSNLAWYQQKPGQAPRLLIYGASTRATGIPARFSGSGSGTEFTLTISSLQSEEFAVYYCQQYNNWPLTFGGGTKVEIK

T3 sequence (Q03405 other isoform, or with tags, fused parts or gaps limits assumed, form in doubt): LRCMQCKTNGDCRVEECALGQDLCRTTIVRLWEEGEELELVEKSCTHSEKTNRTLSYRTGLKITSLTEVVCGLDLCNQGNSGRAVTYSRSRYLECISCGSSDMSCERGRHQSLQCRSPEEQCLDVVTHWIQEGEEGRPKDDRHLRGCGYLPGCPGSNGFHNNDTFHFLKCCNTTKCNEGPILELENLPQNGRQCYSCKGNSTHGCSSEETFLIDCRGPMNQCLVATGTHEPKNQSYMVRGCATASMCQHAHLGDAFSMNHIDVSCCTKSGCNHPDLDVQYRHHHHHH
T2 sequence (Q03405 23-305): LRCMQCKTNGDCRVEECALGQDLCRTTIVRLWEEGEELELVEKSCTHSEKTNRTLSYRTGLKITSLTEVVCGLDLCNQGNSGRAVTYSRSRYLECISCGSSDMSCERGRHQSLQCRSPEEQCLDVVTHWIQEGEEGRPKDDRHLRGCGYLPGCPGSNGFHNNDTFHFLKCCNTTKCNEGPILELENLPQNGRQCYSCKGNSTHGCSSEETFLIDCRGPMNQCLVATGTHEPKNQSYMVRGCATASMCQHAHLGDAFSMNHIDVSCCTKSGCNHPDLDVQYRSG

The first assay has as its target T1, murine uPAR (form not stated) (mouse, UniProt P35456 24-297, limits assumed).
T1 construct: also called mouse uPAR
T1 sequence (looked up): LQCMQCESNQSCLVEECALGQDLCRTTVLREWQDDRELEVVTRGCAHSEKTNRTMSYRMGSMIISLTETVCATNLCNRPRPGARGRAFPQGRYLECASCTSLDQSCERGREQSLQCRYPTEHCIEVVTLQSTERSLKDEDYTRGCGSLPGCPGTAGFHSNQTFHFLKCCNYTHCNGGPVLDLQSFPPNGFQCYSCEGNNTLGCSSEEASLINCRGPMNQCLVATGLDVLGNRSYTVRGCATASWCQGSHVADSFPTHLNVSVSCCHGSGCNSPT
Kind of assay: summary column Murine X-reactivity.
On to B1, for which the binding result is “no binding”.

Consider B2, for which the binding result is recorded as “no binding”.

For B3, the binding result is “no binding”.

For B4, the binding result was “no binding”.

Turning to B5, the binding result is listed as “no binding”.

For B6, the binding result is on record as “no binding”.

The next assay addresses T2, human urokinase-type plasminogen activator receptor (uPAR, CD87), cell-bound (human, UniProt Q03405 23-305).
T2 construct: whole, on cells; On B300.19 or L929 transfectants (full length cDNA), or native on U937 and PC-3 cells
Kind of assay: FACS, B300.19 cells expressing human uPAR, anti-human gamma Cy5.
Turning to B1, the “gCy5 Geo Mean Pos Cells” value was determined as 419.

Turning to B2, the “gCy5 Geo Mean Pos Cells” value turned out to be 559.

Regarding B3, the “gCy5 Geo Mean Pos Cells” value came to 451.

On to B4, for which the “gCy5 Geo Mean Pos Cells” value was 511.

Consider B5, for which the “gCy5 Geo Mean Pos Cells” value is 422.

For the molecule B6, the “gCy5 Geo Mean Pos Cells” value came out at 521.

The next assay addresses T3, soluble recombinant human uPAR/His6 (R&D Systems, Cat. # 807-UK-100) (human, UniProt Q03405 23-303).
T3 construct: range 1-303; Bought protein; also called soluble uPAR; hu-uPAR
The experiment in a line: low resolution Biacore, mAb captured by goat anti-human, hu-uPAR 312 nM.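 Note: surface plasmon resonance on a CM5 chip with goat anti-human antibody surface made by amine coupling, each mAb from supernatant captured per flow cell, kinetics fitted including mass transport.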 A general note: Surface plasmon resonance follows binding to a sensor surface in real time, without labels.
Description: (§1) A high-density goat anti-human antibody surface over a CM5 Biacore™ chip was prepared using routine amine coupling. […] Each mAb was captured on a separate flow cell using a 30-second contact time at 10 μL/min followed by a 5-minute wash at a 100 μL/min flow rate for stabilization of the mAb baseline. […] All antigen samples were prepared in the running buffer.
A mass transport coefficient was used in fitting the data.
As to B1, the Kd worked out at 8.7 nM, the koff was found to be 0.00096 s⁻¹ and the kon amounted to 110000 M⁻¹ s⁻¹.

B2: the Kd was found to be 2.7 nM, the koff was 0.00025 s⁻¹ and the kon came out at 94000 M⁻¹ s⁻¹.

For the molecule B3, the Kd worked out at 3.1 nM, the koff was determined as 6.8e-05 s⁻¹ and the kon was determined as 22000 M⁻¹ s⁻¹.

As to B4, the Kd turned out to be 4.6 nM, the koff was found to be 0.00013 s⁻¹ and the kon turned out to be 28000 M⁻¹ s⁻¹.

B5: the Kd was 3.9 nM, the koff is 0.00013 s⁻¹ and the kon is 33000 M⁻¹ s⁻¹.

Turning to B6, the Kd amounted to 2.3 nM, the koff was 0.00017 s⁻¹ and the kon was found to be 75000 M⁻¹ s⁻¹.

Another assay has as its target T3, soluble recombinant human uPAR/His6 …. The experiment in a line: limited antigen ELISA, uPAR coat 80 ng/mL, sample 1:25. On the technique in general: An ELISA detects its analyte on a solid surface through an enzyme-linked reagent.
Description: (§2) ELISA plates were coated with a lower amount ofuPAR in comparison with the High Antigen Quantitation assay described below (320, 160, 80, 40 and 20 ng/mL). Samples containing one concentration of antibody (Ab) (1:25 dilution) were incubated overnight to allow Ab binding to approach equilibrium.
On to B1, for which the “LA at 80 ng/ml” value was 0.66.

In the case of B2, the “LA at 80 ng/ml” value stood at 1.99.

For the molecule B3, the “LA at 80 ng/ml” value was determined as 2.57.

In the case of B4, the “LA at 80 ng/ml” value came out at 1.8.

Consider B5, for which the “LA at 80 ng/ml” value stood at 1.48.

B6: the “LA at 80 ng/ml” value is 2.15.

For the next assay, the target named is T4, mouse uPAR on the surface of NCTC L929 cells (mouse, UniProt P35456 24-298).
T4 construct: whole, on cells; also called cell surface mouse uPAR
T4 sequence (looked up): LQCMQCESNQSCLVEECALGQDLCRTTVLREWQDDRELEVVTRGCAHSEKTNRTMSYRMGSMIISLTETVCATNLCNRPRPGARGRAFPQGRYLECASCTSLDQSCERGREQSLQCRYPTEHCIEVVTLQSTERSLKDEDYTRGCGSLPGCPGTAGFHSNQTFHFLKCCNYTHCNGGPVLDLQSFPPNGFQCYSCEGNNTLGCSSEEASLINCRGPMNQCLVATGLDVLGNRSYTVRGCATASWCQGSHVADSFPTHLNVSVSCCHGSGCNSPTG
The experiment in a line: FACS, NCTC L929 mouse cells, mAb 6.25 µg/ml. For orientation: Flow cytometry measures light scatter and fluorescence of single cells or particles in a stream.
Description: (§3) To make the mouse cross-reactivity results conclusive, direct binding of the mAbs to cell-bound mouse uPAR was measured using FACS analysis. The mouse cell line derived from the connective tissue, NCTC L929, was employed for FACS analysis. The harvested cells were resuspended at 50,000 cells/well using FACS buffer into a V-bottom plate which was put on ice. […] After washing, Cy5-labeled goat anti-human IgG Fc at 5 μg/ml and 7AAD at 5 μg/ml was added. The mixtures were incubated for 15 min on ice, washed and resuspended in cold FACS buffer for FACS analysis.
In the case of B1, the “X Geo Mean” value came to 12.4.

As for B2, the “X Geo Mean” value is 9.7.

For the molecule B4, the “X Geo Mean” value worked out at 10.2.

Consider B5, for which the “X Geo Mean” value is 9.59.

Take B6: the “X Geo Mean” value stood at 9.89.

For a further assay, the target named is T2, human urokinase-type plasminogen …. The experiment in a line: FACS competition, FITC-tc-uPA on L929 cells expressing human uPAR, supernatant 1:2.
Excerpt: (§4) Briefly, murine fibroblast L929 cells (ATCC) were transfected to express human uPAR.
Consider B1, for which the “uPA/uPAR binding Inhibition %” value was determined as 69%.

In the case of B2, the “uPA/uPAR binding Inhibition %” value is 69%.

As to B3, the “uPA/uPAR binding Inhibition %” value turned out to be 70%.

Consider B4, for which the “uPA/uPAR binding Inhibition %” value came to 75%.

Take B5: the “uPA/uPAR binding Inhibition %” value was 74%.

In the case of B6, the “uPA/uPAR binding Inhibition %” value came out at 78%.

In the next assay the target is T3, soluble recombinant human uPAR/His6 …. The experiment in a line: limited antigen ELISA, uPAR coat 20 ng/mL, sample 1:25.
Description: as §2
For B1, the “LA at 20 ng/ml” value is 0.16.

For B2, the “LA at 20 ng/ml” value came out at 0.27.

Consider B3, for which the “LA at 20 ng/ml” value is 0.67.

For B4, the “LA at 20 ng/ml” value turned out to be 0.53.

Consider B5, for which the “LA at 20 ng/ml” value came out at 0.27.

Regarding B6, the “LA at 20 ng/ml” value came out at 0.27.

The next assay deals with T5, human Ly6e with a myc tag, expressed in HEK293T cells (human, UniProt Q16553 21-101).
T5 construct: whole, on cells; not shown: myc tag fused on the molecule
T5 sequence (looked up): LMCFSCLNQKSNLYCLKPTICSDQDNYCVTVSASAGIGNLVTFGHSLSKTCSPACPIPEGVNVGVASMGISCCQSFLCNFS
Kind of assay: FACS, HEK293T cells expressing Ly6e, supernatant 1:2.
For the molecule B1, the binding result was “no binding (tested: GeoMean ratio 1.95)”.

Consider B2, for which the binding result is given as “no binding (tested: GeoMean ratio 1.95)”.

On to B3, for which the binding result is on record as “no binding (tested: GeoMean ratio 1.95)”.

Take B4: the binding result is given as “no binding (tested: GeoMean ratio 1.95)”.

With B5, the binding result was “no binding (tested: GeoMean ratio 1.95)”.

As for B6, the binding result is “no binding (tested: GeoMean ratio 1.95)”.

Another assay has as its target T3, soluble recombinant human uPAR/His6 …. The experiment in a line: low resolution Biacore.
Description: as §1
In the case of B1, the Kd came to 8.7 nM.

With B2, the Kd was found to be 2.7 nM.

Take B3: the Kd worked out at 3.1 nM.

With B4, the Kd is 4.6 nM.

Consider B5, for which the Kd is 3.9 nM.

In the case of B6, the Kd worked out at 2.3 nM.

The target of another assay is T6, cynomolgus monkey uPAR, cell-bound (cynomolgus monkey, UniProt Q9GK78 23-305).
T6 construct: whole, on cells; also called cyno-uPAR
T6 sequence (Q9GK78 23-305): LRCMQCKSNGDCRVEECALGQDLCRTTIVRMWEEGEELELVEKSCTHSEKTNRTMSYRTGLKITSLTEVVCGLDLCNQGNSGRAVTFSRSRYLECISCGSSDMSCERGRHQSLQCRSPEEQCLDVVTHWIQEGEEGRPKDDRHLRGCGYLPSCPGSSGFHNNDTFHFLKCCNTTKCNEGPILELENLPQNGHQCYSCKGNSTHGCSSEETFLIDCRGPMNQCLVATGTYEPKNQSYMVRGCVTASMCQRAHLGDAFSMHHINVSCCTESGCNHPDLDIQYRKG
Kind of assay: FACS, GeoMean; cynomolgus uPAR expressed on 293T cells; antibody concentration not given.
On to B1, for which the binding result was “binds”.

As for B2, the binding result was “binds”.

As for B4, the binding result is reported as “binds”.

In the case of B5, the binding result is given as “binds”.

As to B6, the binding result is recorded as “binds”.

The target in a further assay is T4, mouse uPAR on the surface of NCTC L929 …. Kind of assay: FACS, NCTC L929 mouse cells.
Description: as §3
Regarding B1, the binding result is “no binding (tested: 6.25 µg/ml)”.

As for B2, the binding result is reported as “no binding (tested: 6.25 µg/ml)”.

As to B4, the binding result is recorded as “no binding (tested: 6.25 µg/ml)”.

As to B5, the binding result is recorded as “no binding (tested: 6.25 µg/ml)”.

Regarding B6, the binding result was “no binding (tested: 6.25 µg/ml)”.

In the next assay the target is T2, human urokinase-type plasminogen …. The experiment in a line: FACS competition with FITC-tc-uPA, line material.
Excerpt: as §4
With B1, the “Human uPAR/uPA binding inhibition (%, line material)” value worked out at 69%.

As to B2, the “Human uPAR/uPA binding inhibition (%, line material)” value is 69%.

Consider B3, for which the “Human uPAR/uPA binding inhibition (%, line material)” value amounted to 70%.

In the case of B4, the “Human uPAR/uPA binding inhibition (%, line material)” value came to 75%.

In the case of B5, the “Human uPAR/uPA binding inhibition (%, line material)” value is 74%.

As to B6, the “Human uPAR/uPA binding inhibition (%, line material)” value was 78%.

A further assay has the same target. Kind of assay: cell-based or functional assay.
With B1, the “Plasminogen activation inhibition (IC50, ug/ml)” value stood at 0.075 µg/mL.

Consider B2, for which the “Plasminogen activation inhibition (IC50, ug/ml)” value is 0.119 µg/mL.

In the case of B3, the “Plasminogen activation inhibition (IC50, ug/ml)” value amounted to 0.328 µg/mL.

B4: the “Plasminogen activation inhibition (IC50, ug/ml)” value amounted to 0.775 µg/mL.

As to B5, the “Plasminogen activation inhibition (IC50, ug/ml)” value stood at 0.181 µg/mL.

As to B6, the “Plasminogen activation inhibition (IC50, ug/ml)” value is 0.061 µg/mL.
